The source of these data is the supplement of paper PMC11865577.

Holding throughout (experiment): pull-down binding Z-score (relative to library population); higher = stronger binding
Details in all cases: RNA library: Library-2

In one data set the test system is TO-N3 (biotin conjugate). In short, it runs like this:
(§1)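 Heat-folded RNA library (1 μg, Cy5 or Cy3 end label, phosphate/NaCl/KCl buffer) was captured for 60 min at 25 °C on streptavidin beads displaying 100 pmol of biotin-conjugated small molecule, then washed three times. The bound fraction, eluted in hot SDS, was hybridised to a DNA barcode microarray at 55.5 °C for 20 h. Z-scores for binding were taken against the library mean and standard deviation after beads-only subtraction and trimmed averaging of replicate barcoded probes.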

Data set [1] deals with TO-3-N3 (biotin conjugate). In short, it runs like this:
as §1

Data set [2] concerns TO-N3-2 (biotin conjugate). The method in brief: as §1
Data set [3] relates to TO-3-N3-2 (biotin conjugate). In short, it runs like this: as §1

Take CGGGCUUAUGUUGCUCG: the “pull-down binding Z-score” value was -0.791 with TO-N3 (biotin conjugate), -0.429 in data set [1], -0.956 in data set [2] and -0.43 in data set [3].

On to “GCUGAGUUGCCAUUCAGC [IAV_invivo_NA_6_Motif_18+IAV_invivo_NA_6_Motif_18]”, for which the “pull-down binding Z-score” value is -0.304 in the data set with TO-N3 (biotin conjugate), -0.302 in data set [1], -0.226 in data set [2] and -0.204 in data set [3].

Turning to “GCAGUAUAAUUAAUAACUAAUUACUGU [SARS-CoV-2-Conserved-Structured-36_Interval-120-237_Motif_1]”, the “pull-down binding Z-score” value with TO-N3 (biotin conjugate) is -1.03; in data set [1], -0.577; in data set [2], -1.31; in data set [3], -0.428.

On to “CUCCUUUGAUGGUUGCAUACAUGUUGGAG [IAV_invivo_PB2_1_Motif_8+IAV_invivo_PB2_1_Motif_8]”, for which the “pull-down binding Z-score” value in the data set with TO-N3 (biotin conjugate) is -0.689; in data set [1], -0.359; in data set [2], -0.427; in data set [3] it was -0.208.

GCGCUGCCAGAAACUGGCGGGAGCGC [bulge-GGG]: the “pull-down binding Z-score” value was 0.688 with TO-N3 (biotin conjugate), 0.781 in data set [1], 0.604 in data set [2] and 0.00655 in data set [3].

As for “UAUAUGCCUUAUUUCUUUACUUUAUUGCUACAAUUGUGUACUUUUACUAGAAGUACAAAUUCUAGAAUUAAAGCAUCUA [DMSMaPseq_invitro_SARS-CoV-2_Motif_128]”, the “pull-down binding Z-score” value with TO-N3 (biotin conjugate) was -0.348; in data set [1], -0.237; in data set [2], -0.67; in data set [3] it was 0.0402.

“AUGUCAUAUUGGAGUUGGACUGCAGGGCUUCCUUUACACAAUAAAUAUUGUAUGAAGUGCUGAUGUAACCUUUACUGCAGCAUGACAU [hsa-mir-3976]”: the “pull-down binding Z-score” value in the data set with TO-N3 (biotin conjugate) is 0.227; in data set [1] it was 0.131; in data set [2], 0.0127; in data set [3], -0.081.

For the sequence “UCUUCAGGUUGGACAGCUGGUGCUGCAGCUUAUUAUGUGGGUUAUCUUCAACCUAGGA [DMSMaPseq_invitro_SARS-CoV-2_Multi_66_ComplexLevel_1]”, the “pull-down binding Z-score” value in the data set on TO-N3 (biotin conjugate) is 0.0485; in data set [1], -0.145; in data set [2], 0.0317; in data set [3] it was -0.178.

As to CAGGCCACAAAUAGGCGUG, the “pull-down binding Z-score” value in the data set with TO-N3 (biotin conjugate) is -0.509; in data set [1], -0.638; in data set [2] it was 0.278; in data set [3], -0.502.

Turning to GCGCUGCCAGAAACUGGCAAAAGCGC [bulge-AAA], the “pull-down binding Z-score” value was -0.936 in the data set with TO-N3 (biotin conjugate), -0.765 in data set [1], -0.689 in data set [2] and -0.295 in data set [3].

In the case of “GUACAUACAGCUAAUAAAUGGGAUCUCAUUAUUAGUGAUAUGUAC”, the “pull-down binding Z-score” value is -0.621 in the data set on TO-N3 (biotin conjugate), -0.823 in data set [1], 0.426 in data set [2] and -0.167 in data set [3].

For the sequence “UAAGGAAGGAAGUUCUGUUGAAUUAAAACACUUCUUCUUUG [SHAPE_invitro_SARS-CoV-2_Motif_269]”, the “pull-down binding Z-score” value in the data set on TO-N3 (biotin conjugate) was -1.1; in data set [1], -0.963; in data set [2] it was -0.905; in data set [3], -0.389.

Regarding “UCACUCACUGAGUGA [IAV_invivo_NP_5_Motif_1+IAV_invivo_NP_5_Motif_1]”, the “pull-down binding Z-score” value was -0.616 with TO-N3 (biotin conjugate), -0.0667 in data set [1], -1.45 in data set [2] and -0.357 in data set [3].

For the sequence “UCCUCCCAGUGGCUGGUGGA [IAV_invivo_PB2_1_Motif_9+IAV_invivo_PB2_1_Motif_9]”, the “pull-down binding Z-score” value is -0.228 in the data set with TO-N3 (biotin conjugate), -0.0747 in data set [1], -0.225 in data set [2] and -0.322 in data set [3].

With “GCUCACCGUGCCCAGUGAGC [IAV_invivo_M1_M2_7_Motif_5+IAV_invivo_M1_M2_7_Motif_5]”, the “pull-down binding Z-score” value was 0.0761 in the data set with TO-N3 (biotin conjugate), 0.297 in data set [1], -0.587 in data set [2] and -0.154 in data set [3].

Turning to “GUAUGAGCAGUAUAU [DMSMaPseq_invitro_SARS-CoV-2_Motif_451]”, the “pull-down binding Z-score” value is -0.709 in the data set with TO-N3 (biotin conjugate), -0.638 in data set [1], -0.416 in data set [2] and -0.295 in data set [3].

CACUUCUUUCUUUGAGAGAAGUG: the “pull-down binding Z-score” value was -0.669 with TO-N3 (biotin conjugate), -0.323 in data set [1], -1.42 in data set [2] and -0.228 in data set [3].

With “UAUAAAGUUUAUUAUGGUAAUGCUUUAGAUCAAGCCAUUUCCAUGUGGGCUCUUAUA”, the “pull-down binding Z-score” value was -0.806 in the data set with TO-N3 (biotin conjugate), -0.704 in data set [1], -0.695 in data set [2] and -0.133 in data set [3].

Take “GGCCCGAGUGAUGGGCU [IAV_invivo_NA_6_Motif_9+IAV_invivo_NA_6_Motif_9]”: the “pull-down binding Z-score” value with TO-N3 (biotin conjugate) is -0.27; in data set [1], -0.127; in data set [2] it was 0.201; in data set [3] it was -0.29.

In the case of “UCCACUAGCAUCUUUAUUGGAGAUGUGCCACAGCACACAGAUUGGUGGAAUUAGGAUGGUAGACAUCCUUAGGCAGAACCCAACAGAAGAGCAAGCCGUGGA”, the “pull-down binding Z-score” value in the data set on TO-N3 (biotin conjugate) was -0.545; in data set [1] it was -0.764; in data set [2], 0.0456; in data set [3] it was -0.269.

“CAGAGACUUGAAGAUGUCUUUG [IAV_invivo_M1_M2_7_Motif_2+IAV_invivo_M1_M2_7_Motif_2]”: the “pull-down binding Z-score” value in the data set with TO-N3 (biotin conjugate) is -0.897; in data set [1], -0.637; in data set [2], -0.242; in data set [3], -0.362.

With “UCUGGAGUAAAAGACUGUGUUGUAUUACACAGUUACUUCACUUCAGA”, the “pull-down binding Z-score” value in the data set with TO-N3 (biotin conjugate) is -0.481; in data set [1], -0.0665; in data set [2], -0.98; in data set [3] it was -0.0465.

With UUAAGUGACACACUUAA, the “pull-down binding Z-score” value in the data set on TO-N3 (biotin conjugate) is -1.18; in data set [1], -0.711; in data set [2], -1.49; in data set [3], -0.663.

In the case of UGGGGCGCGAUCAAAACAACGUCGGCCCCA, the “pull-down binding Z-score” value was 0.0437 in the data set with TO-N3 (biotin conjugate), 0.2 in data set [1], -0.439 in data set [2] and 0.157 in data set [3].

In the case of “CUGACUUAACAAAGCCUUACAUUAAGUGGGAUUUGUUAAAAUAUGACUUCACGGAAGAGAGGUUAAAACUCUUUGACCGUUAUUUUAAAUAUUGG”, the “pull-down binding Z-score” value in the data set with TO-N3 (biotin conjugate) is -0.517; in data set [1] it was -0.707; in data set [2], -0.193; in data set [3] it was -0.143.

Consider “UACUUUACUCAGAGUA [SHAPE_invitro_SARS-CoV-2_Motif_368]”, for which the “pull-down binding Z-score” value with TO-N3 (biotin conjugate) was -1.58; in data set [1], -1.06; in data set [2], -1.64; in data set [3], -0.589.

“CUAUCAGGCCGGUAG [DMSMaPseq_invitro_SARS-CoV-2_Motif_406]”: the “pull-down binding Z-score” value in the data set on TO-N3 (biotin conjugate) was -0.672; in data set [1] it was -0.61; in data set [2], -0.0779; in data set [3], -0.579.

Regarding “GGCAGACGUGGUCCAGAACAAACCCAAGGAAAUUUUGGGGACCAGGAACUAAUCAGACAAGGAACUGAUUACAAACAUUGGCC”, the “pull-down binding Z-score” value stood at 0.753 in the data set on TO-N3 (biotin conjugate), 0.608 in data set [1], 0.614 in data set [2] and 0.536 in data set [3].

Take “GGUCUCCGACGGAGGCC [IAV_invivo_PB1_2_Motif_32+IAV_invivo_PB1_2_Motif_32]”: the “pull-down binding Z-score” value is -0.183 in the data set on TO-N3 (biotin conjugate), 0.0169 in data set [1], -1.15 in data set [2] and -0.224 in data set [3].

On to “GGGAGAUUAAUGGUCCU [IAV_invivo_PB2_1_Motif_25+IAV_invivo_PB2_1_Motif_25]”, for which the “pull-down binding Z-score” value in the data set on TO-N3 (biotin conjugate) is 0.327; in data set [1], 0.341; in data set [2], 0.225; in data set [3], 0.00669.

“UGGAGGAAUACAAAUCCA [SHAPE_invitro_SARS-CoV-2_Motif_386]”: the “pull-down binding Z-score” value in the data set with TO-N3 (biotin conjugate) is 0.109; in data set [1], 0.291; in data set [2], -0.404; in data set [3], 0.00658.

With UACCUUUUGCUAUGGGUA, the “pull-down binding Z-score” value in the data set with TO-N3 (biotin conjugate) is -0.582; in data set [1] it was -0.317; in data set [2] it was -1.26; in data set [3] it was -0.454.

Take “AACGAACUUUAAAAUCUGUGUGGCUGUCACUCGGCUGCAUGCUUAGUGCACUCACGCAGUAUAAUUAAUAACUAAUUACUGUCGUU”: the “pull-down binding Z-score” value with TO-N3 (biotin conjugate) is -0.781; in data set [1], -1.01; in data set [2] it was -0.131; in data set [3] it was -0.0969.
